Reference: patent US20160291016A1 (CHU SAINTE JUSTINE, published 2016)

Legend:
[1] = biological target: T1, integrin α5 (OPN receptor subunit) of mouse osteoblasts (mouse, UniProt P11688 45-1053); experiment: co-immunoprecipitation from mouse osteoblast lysates, Western blot
T1 construct: Only the subunit is named; also called α5 integrin
Excerpt: (§1) Then, was examined whether the interaction of OPN with the receptor is influenced by PTPμ deficiency. […] In contrast, levels of CD44 in OPN immunoprecipitates were similar in WT and PTPμ^{-/-} osteoblasts.

[2] = biological target: T2, integrin β1 (OPN receptor subunit) of mouse osteoblasts (mouse, UniProt P09055 21-798); experiment: as above
T2 construct: Only the subunit is named; also called β1 integrin
T2 sequence (chain, as listed by the source limits assumed, chain 1 of 2): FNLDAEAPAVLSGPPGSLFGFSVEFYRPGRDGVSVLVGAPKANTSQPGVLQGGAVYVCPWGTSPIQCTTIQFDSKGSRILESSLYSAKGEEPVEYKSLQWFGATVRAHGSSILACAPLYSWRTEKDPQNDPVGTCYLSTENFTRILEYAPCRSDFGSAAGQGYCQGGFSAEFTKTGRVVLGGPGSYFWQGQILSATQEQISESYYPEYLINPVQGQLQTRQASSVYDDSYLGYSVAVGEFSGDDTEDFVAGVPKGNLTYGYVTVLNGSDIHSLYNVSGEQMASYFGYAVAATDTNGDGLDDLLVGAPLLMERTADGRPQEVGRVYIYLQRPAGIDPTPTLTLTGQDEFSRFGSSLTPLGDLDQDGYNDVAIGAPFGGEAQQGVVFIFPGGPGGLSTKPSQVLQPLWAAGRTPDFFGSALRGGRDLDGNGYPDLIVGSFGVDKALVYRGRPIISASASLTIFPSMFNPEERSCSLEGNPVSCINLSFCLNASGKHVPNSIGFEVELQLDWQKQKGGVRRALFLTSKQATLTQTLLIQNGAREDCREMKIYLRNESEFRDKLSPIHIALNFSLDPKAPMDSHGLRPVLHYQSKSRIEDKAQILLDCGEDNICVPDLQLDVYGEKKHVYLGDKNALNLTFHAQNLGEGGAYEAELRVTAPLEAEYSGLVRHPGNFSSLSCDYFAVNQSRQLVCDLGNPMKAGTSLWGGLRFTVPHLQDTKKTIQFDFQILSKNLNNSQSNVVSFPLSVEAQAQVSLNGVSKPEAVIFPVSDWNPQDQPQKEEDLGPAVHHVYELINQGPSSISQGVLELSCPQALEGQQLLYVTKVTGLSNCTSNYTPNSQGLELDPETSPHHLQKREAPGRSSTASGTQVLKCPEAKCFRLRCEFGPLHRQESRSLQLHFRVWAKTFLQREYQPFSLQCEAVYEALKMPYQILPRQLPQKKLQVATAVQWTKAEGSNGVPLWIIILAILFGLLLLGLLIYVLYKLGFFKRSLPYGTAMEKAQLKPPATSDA
T2 sequence (P09055 21-798 limits assumed, chain 2 of 2): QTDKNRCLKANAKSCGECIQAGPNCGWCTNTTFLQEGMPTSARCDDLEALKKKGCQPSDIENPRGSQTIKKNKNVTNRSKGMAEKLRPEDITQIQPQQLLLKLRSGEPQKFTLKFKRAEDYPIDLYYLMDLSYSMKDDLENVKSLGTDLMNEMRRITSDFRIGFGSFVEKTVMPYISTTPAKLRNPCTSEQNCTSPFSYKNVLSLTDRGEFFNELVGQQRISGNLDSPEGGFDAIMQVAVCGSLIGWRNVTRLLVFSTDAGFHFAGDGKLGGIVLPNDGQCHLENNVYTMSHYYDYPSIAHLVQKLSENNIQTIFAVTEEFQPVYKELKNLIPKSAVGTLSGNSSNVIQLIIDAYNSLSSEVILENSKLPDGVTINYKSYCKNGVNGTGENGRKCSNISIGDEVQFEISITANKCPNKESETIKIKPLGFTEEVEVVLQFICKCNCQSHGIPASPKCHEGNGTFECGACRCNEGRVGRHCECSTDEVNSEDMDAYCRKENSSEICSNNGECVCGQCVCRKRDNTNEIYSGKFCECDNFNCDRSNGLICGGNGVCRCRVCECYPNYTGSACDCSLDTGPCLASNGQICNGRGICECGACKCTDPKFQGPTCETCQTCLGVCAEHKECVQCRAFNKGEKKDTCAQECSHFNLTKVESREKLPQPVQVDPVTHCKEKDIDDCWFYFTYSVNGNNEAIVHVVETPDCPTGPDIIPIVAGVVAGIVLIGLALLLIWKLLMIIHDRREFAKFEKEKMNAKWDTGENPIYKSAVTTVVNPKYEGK
Excerpt: as §1

T1 sequence (P11688 45-1053 limits assumed, chain 1 of 2): as the sequence (chain, as listed by the source limits assumed, chain 1 of 2) above
T1 sequence (chain, as listed by the source limits assumed, chain 2 of 2): as the sequence (P09055 21-798 limits assumed, chain 2 of 2) above

fold change of the level in the immunoprecipitates, PTPµ-/- osteoblasts against WT osteoblasts [1]: > 30 fold
fold change of the level in the immunoprecipitates, PTPµ-/- osteoblasts against WT osteoblasts [2]: > 30 fold
B1: osteopontin (OPN), endogenous, in lysates of mouse osteoblasts (ligand)
chain: not shown
notes: Endogenous protein detected by Western blot with an anti-OPN antibody after immunoprecipitation of its receptors
